In patent US20110294748A1 (Janssen / Centocor, published 2011):
Ends that are not written are not given here.

B1: peptide-Alkaline phosphatase-His6 fusion protein of clone 5 (other)
chain: TGCDFPELCRGCHPTPEMPVLENRAAQGDITTPGGARRLTGDQTAALRDSLSDKPAKNIILLIGDGMGDSEITAARNYAEGAGGFFKGIDALPLTGQYTHYALNKKTGKPDYVTDSAASATAWSTGVKTYNGALGVDIHEKDHPTILEMAKAAGLATGNVSTAELQGATPAALVAHVTSRKCYGPSATSEKCPGNALEKGGKGSITEQLLNARADVTLGGGAKTFAETATAGEWQGKTLREQAQTRGYQLVSDAASLNSVTEANQQKPLLGLFADGNMPVRWLGPKATYHGNIDKPAVTCTPNPQRNDSVPTLAQMTDKAIELLSKNEKGFFLQVEGASIDKQNHAANPCGQIGETVDLDEAVQRALEFAKKEGNTLVIVTADHAHASQIVAPDTKAPGLTQALNTKDGAVMVMSYGNSEEDSQEHTGSQLRIAAYGPHAANVVGLTDQTDLFYTMKAALGLKVPGGSGGGSGGGSGGGSGTPEMPVLENRAAQGDITTPGGARRLTGDQTAALRDSLSDKPAKNIILLIGDGMGDSEITAARNYAEGAGGFFKGIDALPLTGQYTHYALNKKTGKPDYVTDSAASATAWSTGVKTYNGALGVDIHEKDHPTILEMAKAAGLATGNVSTAELQGATPAALVAHVTSRKCYGPSATSEKCPGNALEKGGKGSITEQLLNARADVTLGGGAKTFAETATAGEWQGKTLREQAQTRGYQLVSDAASLNSVTEANQQKPLLGLFADGNMPVRWLGPKATYHGNIDKPAVTCTPNPQRNDSVPTLAQMTDKAIELLSKNEKGFFLQVEGASIDKQNHAANPCGQIGETVDLDEAVQRALEFAKKEGNTLVIVTADHAHASQIVAPDTKAPGLTQALNTKDGAVMVMSYGNSEEDSQEHTGSQLRIAAYGPHAANVVGLTDQTDLFYTMKAALGLKVPGNSHHHHHH
notes: Tested as bacterial culture supernatant; also called peptide-AP fusion clone 5
B2: peptide-Alkaline phosphatase-His6 fusion protein of clone 6 (other)
chain: AECEWPWLTLELCQSTPEMPVLENRAAQGDITTPGGARRLTGDQTAALRDSLSDKPAKNIILLIGDGMGDSEITAARNYAEGAGGFFKGIDALPLTGQYTHYALNKKTGKPDYVTDSAASATAWSTGVKTYNGALGVDIHEKDHPTILEMAKAAGLATGNVSTAELQGATPAALVAHVTSRKCYGPSATSEKCPGNALEKGGKGSITEQLLNARADVTLGGGAKTFAETATAGEWQGKTLREQAQTRGYQLVSDAASLNSVTEANQQKPLLGLFADGNMPVRWLGPKATYHGNIDKPAVTCTPNPQRNDSVPTLAQMTDKAIELLSKNEKGFFLQVEGASIDKQNHAANPCGQIGETVDLDEAVQRALEFAKKEGNTLVIVTADHAHASQIVAPDTKAPGLTQALNTKDGAVMVMSYGNSEEDSQEHTGSQLRIAAYGPHAANVVGLTDQTDLFYTMKAALGLKVPGGSGGGSGGGSGGGSGTPEMPVLENRAAQGDITTPGGARRLTGDQTAALRDSLSDKPAKNIILLIGDGMGDSEITAARNYAEGAGGFFKGIDALPLTGQYTHYALNKKTGKPDYVTDSAASATAWSTGVKTYNGALGVDIHEKDHPTILEMAKAAGLATGNVSTAELQGATPAALVAHVTSRKCYGPSATSEKCPGNALEKGGKGSITEQLLNARADVTLGGGAKTFAETATAGEWQGKTLREQAQTRGYQLVSDAASLNSVTEANQQKPLLGLFADGNMPVRWLGPKATYHGNIDKPAVTCTPNPQRNDSVPTLAQMTDKAIELLSKNEKGFFLQVEGASIDKQNHAANPCGQIGETVDLDEAVQRALEFAKKEGNTLVIVTADHAHASQIVAPDTKAPGLTQALNTKDGAVMVMSYGNSEEDSQEHTGSQLRIAAYGPHAANVVGLTDQTDLFYTMKAALGLKVPGNSHHHHHH
notes: Tested as bacterial culture supernatant; also called peptide-AP fusion clone 6
B3: PG-peptide fusion of clone 5 (protein G IgG domain with peptide SEQ ID NO: 1 at its C-terminus) (other)
chain: YKLILNGKTLKGETTTEAVDAATAEKVFKQYANDNGVDGEWTYDDATKTFTVTETGCDFPELCRGCHP
notes: also called PG-peptide fusion clone 5
B4: PG-peptide fusion of clone 6 (protein G IgG domain with peptide SEQ ID NO: 2 at its C-terminus) (other)
chain: YKLILNGKTLKGETTTEAVDAATAEKVFKQYANDNGVDGEWTYDDATKTFTVTEAECEWPWLTLELCQS
notes: also called PG-peptide fusion clone 6
B5: PG-peptide fusion of clone 7 (protein G IgG domain with peptide SEQ ID NO: 3 at its C-terminus) (other)
chain: YKLILNGKTLKGETTTEAVDAATAEKVFKQYANDNGVDGEWTYDDATKTFTVTEPFCYSGGPLPYPCTY
notes: also called PG-peptide fusion clone 7
B6: PG-peptide fusion of clone 8 (protein G IgG domain with peptide SEQ ID NO: 4 at its C-terminus) (other)
chain: YKLILNGKTLKGETTTEAVDAATAEKVFKQYANDNGVDGEWTYDDATKTFTVTEPVCPSFCYDQYVCPT
notes: also called PG-peptide fusion clone 8
B7: PG-peptide fusion of clone 9 (protein G IgG domain with peptide SEQ ID NO: 5 at its C-terminus) (other)
chain: YKLILNGKTLKGETTTEAVDAATAEKVFKQYANDNGVDGEWTYDDATKTFTVTEFTCAVYSLSELDCRD
notes: also called PG-peptide fusion clone 9
B8: PG-peptide fusion of clone 10 (protein G IgG domain with peptide SEQ ID NO: 6 at its C-terminus) (other)
chain: YKLILNGKTLKGETTTEAVDAATAEKVFKQYANDNGVDGEWTYDDATKTFTVTELSCYDPTLRTLYCHV
notes: also called PG-peptide fusion clone 10
B9: PG-peptide fusion of clone 11 (protein G IgG domain with peptide SEQ ID NO: 7 at its C-terminus) (other)
chain: YKLILNGKTLKGETTTEAVDAATAEKVFKQYANDNGVDGEWTYDDATKTFTVTEHTCFYPTLMPPELCFD
notes: also called PG-peptide fusion clone 11
B10: PG-peptide fusion of clone 12 (protein G IgG domain with peptide SEQ ID NO: 8 at its C-terminus) (other)
chain: YKLILNGKTLKGETTTEAVDAATAEKVFKQYANDNGVDGEWTYDDATKTFTVTESNCPPLDMRLTELCVM
notes: also called PG-peptide fusion clone 12
B11: PG-peptide fusion of clone 14 (protein G IgG domain with peptide SEQ ID NO: 10 at its C-terminus) (other)
chain: YKLILNGKTLKGETTTEAVDAATAEKVFKQYANDNGVDGEWTYDDATKTFTVTEVECDTPSITFSPGLEALFWNTCSP
notes: also called PG-peptide fusion clone 14
B12: PG-peptide fusion of clone 16 (protein G IgG domain with peptide SEQ ID NO: 12 at its C-terminus) (other)
chain: YKLILNGKTLKGETTTEAVDAATAEKVFKQYANDNGVDGEWTYDDATKTFTVTEAGCPSPMPPVDPGFYSAIVQLCRE
notes: also called PG-peptide fusion clone 16

Key:
[1] = target: T1, soluble IGF1R (sIGF1R), extracellular domain of human insulin-like growth factor 1 receptor, carboxy-terminal … (human, UniProt P08069 31-932); assay: solid phase phage ELISA, phage lysate on coated sIGF1R
T1 construct: Bought from R&D Systems; GenBank NP-000866 is printed for the whole receptor; also called IFG1R
Method: Total of 384 individual phage lysates from the panning were tested for binding specificity towards sIGF1R in a solid phase phage ELISA. Briefly, 100 μl/well of 5 μg/ml sIGF1R (R&D Systems, Minneapolis, Minn.) was bound to Black Maxisorp Plates (Nunc, Rochester, N.Y.), 25 μl of phage lysate added, and the reaction was detected using anti-M13-HRP antibody (EMD Biosciences, Gibbstown, N.J.) and POD substrate (Roche, Indianapolis, Ind.), and the signal detected using a TEKAN plate reader. […] Positive lysates were defined as clones with a sIGF1R specific signal that was three fold above the background of the negative control. A total of 13 clones with unique peptide sequences were obtained with confirmed binding to the sIGF1R (Table 1). From these 13 clones, 3 (clones 5, 13 and 16) cross-reacted with the insulin receptor.

[2] = target: T1, soluble IGF1R (sIGF1R), extracellular …; assay: ELISA, culture supernatant on 2 µg/ml coated sIGF1R, Attophos detection
Method: The binding of purified peptide-AP fusion proteins to sIGF1R was assessed using ELISA against immobilized sIGF1R. Briefly, bacteria transformed with each peptide-AP fusion expression vector were grown overnight and the following day the cultures were clarified by centrifugation at 4,500 rpm, 4° C. The supernatants were collected and 75 μl of each supernatant was assayed for binding to 2 μg/ml sIGF1R immobilized on ELISA plates. The bound peptides were detected using the Attophos Substrate (Roche, Indianapolis, Ind.) following the manufacturer's recommendation and read using a Molecular Devices M5 plate reader.

[3] = target: T1, soluble IGF1R (sIGF1R), extracellular …; assay: ELISA, serially diluted PG-peptide fusion on coated sIGF1R, one site binding fit
Method: Relative binding affinities of the PG-peptide fusions for sIGF1R were measured using ELISA. The Kds were determined using GraphPad Prism 4 software with a one site binding equation. 100 μl of 2 μg/ml sIGF1R(R&D Systems, Minneapolis, Minn.) in Dulbecco's Phosphate Buffer Saline (DPBS (−/−)) was coated onto a 96 well Black Maxisorp plates (Nunc, Rochester, N.Y.) overnight at 4° C. The plates were washed with TBST and the wells blocked with 200 μl/well Starting Block T20 (TBS) (Pierce, Rockford, Ill.) for 1 hr, room temperature with 300 rpm shaking. 75 μl/well of purified, serially diluted PG-peptide fusions, starting concentration 40 μM, was added into the wells and incubated for 1 h, room temperature with 300 rpm mixing; the volume was brought up to 100 μl with Starting Block T20. The plates were washed 3× with TBST and then probed with 100 μl/well Peroxidase labeled-Rabbit antibody (1:5000) (Rockland, Gilbertsville, Pa.), washed, and the signal was detected using 100 μl/well POD substrate (Roche, Indianapolis, Ind.). Chemiluminescence was detected using a Molecular Devices M5 plate reader.

| Binder | binding result [1] | EC50 [3] | other results |
| --- | --- | --- | --- |
| TGCDFPELCRGCHP (peptide, not shown: large carriers, cysteine pairing not given here; also: displayed on phage pIX, Tested as phage lysate) [phage clone 5 (peptide SEQ ID NO: 1 displayed on pIX phage)] | binds | – | – |
| VECDTPSITFSPGLEALFWNTCSP (peptide, not shown: large carriers, cysteine pairing not given here; also: displayed on phage pIX, Tested as phage lysate) [phage clone 14 (peptide SEQ ID NO: 10 displayed on pIX phage)] | binds | – | – |
| AGCPSPMPPVDPGFYSAIVQLCRE (peptide, not shown: large carriers, cysteine pairing not given here; also: displayed on phage pIX, Tested as phage lysate) [phage clone 16 (peptide SEQ ID NO: 12 displayed on pIX phage)] | binds | – | – |
| DDIDEFLHQLHNLVNNVH (peptide, not shown: large carriers, Tested as phage lysate) [phage clone 17 (peptide SEQ ID NO: 13 displayed on pIX phage)] | binds | – | – |
| B1 | – | – | binding result [2]: binds |
| B2 | – | – | binding result [2]: binds |
| AECEWPWLTLELCQS (peptide, not shown: large carriers, cysteine pairing not given here; also: displayed on phage pIX, Tested as phage lysate) [phage clone 6 (peptide SEQ ID NO: 2 displayed on pIX phage)] | binds | – | – |
| B3 | – | 750 nM | – |
| B4 | – | 1000 nM | – |
| B5 | – | 1800 nM | – |
| PFCYSGGPLPYPCTY (peptide, not shown: large carriers, cysteine pairing not given here; also: displayed on phage pIX, Tested as phage lysate) [phage clone 7 (peptide SEQ ID NO: 3 displayed on pIX phage)] | binds | – | – |
| B6 | – | 1600 nM | – |
| B7 | – | 3500 nM | – |
| B8 | – | 4300 nM | – |
| B9 | – | 1200 nM | – |
| B10 | – | 1800 nM | – |
| B11 | – | 850 nM | – |
| B12 | – | 8200 nM | – |
| PVCPSFCYDQYVCPT (peptide, not shown: large carriers, cysteine pairing not given here; also: displayed on phage pIX, Tested as phage lysate) [phage clone 8 (peptide SEQ ID NO: 4 displayed on pIX phage)] | binds | – | – |
| FTCAVYSLSELDCRD (peptide, not shown: large carriers, cysteine pairing not given here; also: displayed on phage pIX, Tested as phage lysate) [phage clone 9 (peptide SEQ ID NO: 5 displayed on pIX phage)] | binds | – | – |
| LSCYDPTLRTLYCHV (peptide, not shown: large carriers, cysteine pairing not given here; also: displayed on phage pIX, Tested as phage lysate) [phage clone 10 (peptide SEQ ID NO: 6 displayed on pIX phage)] | binds | – | – |
| HTCFYPTLMPPELCFD (peptide, not shown: large carriers, cysteine pairing not given here; also: displayed on phage pIX, Tested as phage lysate) [phage clone 11 (peptide SEQ ID NO: 7 displayed on pIX phage)] | binds | – | – |
| SNCPPLDMRLTELCVM (peptide, not shown: large carriers, cysteine pairing not given here; also: displayed on phage pIX, Tested as phage lysate) [phage clone 12 (peptide SEQ ID NO: 8 displayed on pIX phage)] | binds | – | – |
